In patent US7083511B1, “Methods” (The University of Dundee, priority 1998, dated 2006):

Experiments:
Format in all cases: biochemical
PKBα = target: T1, PKBα (Homo sapiens, UniProt P31749); assay: Activity of PKBα towards synthetic peptides related to Crosstide; conditions: GST-PKBα from 293 cells activated by PDK1; each peptide 30 μM
T1 construct: pEBG-PKBa expressing full length PKBα; made in house; host or cells: 293 cells (pEBG-PKBα)

SGK2 = target: T2, SGK2 (Homo sapiens, UniProt Q9HBY8, S356D); assay: Activity of SGK2 toward synthetic peptides related to Crosstide; conditions: each peptide 30 μM, average of two experiments
T2 construct: pEBG-SGK2α expressing full length of SGK2α; made in house; host or cells: 293 cells (pEBG-2T-2 vector)
T2 sequence (Q9HBY8 1-367 S356D): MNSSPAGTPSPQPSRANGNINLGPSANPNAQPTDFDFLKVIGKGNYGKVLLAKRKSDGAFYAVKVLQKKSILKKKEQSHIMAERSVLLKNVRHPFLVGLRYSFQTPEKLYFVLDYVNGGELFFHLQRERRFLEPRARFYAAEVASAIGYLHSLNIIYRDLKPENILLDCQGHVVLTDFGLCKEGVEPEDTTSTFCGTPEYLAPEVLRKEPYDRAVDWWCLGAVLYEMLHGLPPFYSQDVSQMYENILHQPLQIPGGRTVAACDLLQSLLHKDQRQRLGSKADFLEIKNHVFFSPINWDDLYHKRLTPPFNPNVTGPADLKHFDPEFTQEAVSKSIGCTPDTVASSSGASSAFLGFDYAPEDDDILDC
Method: Each GST-SGK isoform (0.4 μg) was incubated for 20 min at 30° C. with protein phosphatase 2A (PP2A, 30 mU/ml) in a 10 μl incubation containing 20 mM Tris/HCl, pH 7.5, 0.1% (v/v) 2-mercaptoethanol, 0.1 mM EGTA and 1 mg/ml bovine serum albumin. After addition of microcystin-LR to 1 μM to inactivate PP2A, SGK (0.4 μg) was phosphorylated for 30 min at 30° C. in a mixture (20 μl) containing 50 mM Tris/HCl, pH 7.5, 10 mM MgCl2, 0.1% (v/v) 2-mercaptoethanol, 0.1 mM EGTA, GST-PDK1 (0.03–300 ng) diluted in Buffer C and 100 μM unlabelled ATP. […] ID. NO:30) and 4.2 μM of residues 5–24 of the specific protein inhibitor of adenosine 3′5′ cyclic monophosphate-dependent protein kinase. After 10 min at 30° C., the reactions were terminated by spotting aliquots on to P81 phosphocellulose paper, followed by immediate immersion in 75 mM phosphoric acid. The papers were washed, dried and analysed. One unit (U) of SGK was that amount which phosphorylated 1 nmole of Crosstide in one min.

SGK = target: T3, SGK (Homo sapiens, UniProt O00141, S422D); assay: Activity of SGK towards synthetic peptides related to Crosstide; conditions: GST-ΔN-SGK from 293 cells activated by PDK1; each peptide 30 μM
T3 construct: made in house; host or cells: human embryonic kidney 293 cells (pEBG-2T vector)
T3 sequence (O00141 61-431 S422D): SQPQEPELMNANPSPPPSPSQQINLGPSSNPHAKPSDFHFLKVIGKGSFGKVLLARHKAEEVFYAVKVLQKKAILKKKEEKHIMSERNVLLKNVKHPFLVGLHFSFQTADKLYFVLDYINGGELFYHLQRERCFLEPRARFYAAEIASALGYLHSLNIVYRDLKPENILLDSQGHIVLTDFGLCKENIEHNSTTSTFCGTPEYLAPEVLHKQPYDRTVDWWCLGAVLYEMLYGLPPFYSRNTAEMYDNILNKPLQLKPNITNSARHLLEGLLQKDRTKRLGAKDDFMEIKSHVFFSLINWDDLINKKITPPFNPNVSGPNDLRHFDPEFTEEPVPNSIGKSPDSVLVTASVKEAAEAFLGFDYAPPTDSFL
Method: Phosphorylation and assay of SGK. Phosphorylation was carried out at 30° C. in 50 μl incubations containing 50 mM Tris/HCl pH 7.5, 0.1 mM EGTA, 0.1% (v/v) 2-mercaptoethanol, 2.5 μM PKI, 1 μM microcystin-LR, 10 mM magnesium chloride and 100 μM ATP. Where indicated lipid vesicles containing phosphatidylcholine (100 μM), phosphatidyl serine (100 μM) and PtdIns(3,4,5)P3 (1 μM) were also included. SGK activity was assayed exactly as described for PKB [6] using the peptide […] (SEQ. ID. NO:30) (“Crosstide”) at 30 μM as substrate. One unit of activity (U) was that amount which catalysed the phosphorylation of […] of Crosstide in one min.

SGK1 = target: T4, SGK1 (Homo sapiens, UniProt O00141, S422D); assay: Activity of SGK1 toward synthetic peptides related to Crosstide; conditions: each peptide 30 μM, average of two experiments
T4 construct: made in house; host or cells: human embryonic kidney 293 cells (pEBG-2T vector)
T4 sequence (O00141 61-431 S422D): T3 sequence (O00141 61-431 S422D)

SGK3 = target: T5, SGK3 (Homo sapiens, UniProt Q96BR1, S486D); assay: Activity of SGK3 toward synthetic peptides related to Crosstide; conditions: each peptide 30 μM, average of two experiments
T5 construct: SGK3 lacking the N-terminal 52 residues (ΔN-SGK3[53–429]); made in house; host or cells: 293 cells (pEBG-2T-2 vector)
T5 sequence (Q96BR1 120-496 S486D): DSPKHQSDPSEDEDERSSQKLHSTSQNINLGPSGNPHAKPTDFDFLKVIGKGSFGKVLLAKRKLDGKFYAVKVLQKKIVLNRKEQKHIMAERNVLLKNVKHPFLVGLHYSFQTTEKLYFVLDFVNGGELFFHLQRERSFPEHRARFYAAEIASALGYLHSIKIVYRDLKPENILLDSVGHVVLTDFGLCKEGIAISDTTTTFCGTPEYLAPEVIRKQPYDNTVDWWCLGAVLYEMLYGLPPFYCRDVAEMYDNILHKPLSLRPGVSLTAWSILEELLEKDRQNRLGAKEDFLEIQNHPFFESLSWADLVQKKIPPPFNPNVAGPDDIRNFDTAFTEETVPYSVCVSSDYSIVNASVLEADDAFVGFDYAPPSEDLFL

[1] = GST-SGK2α[S356D] from 293 cells
[2] = GST-ΔN-SGK1[S422D] from 293 cells
[3] = GST-ΔN-SGK3[S419D] from 293 cells

T1 sequence (P31749 whole entry, species assumed): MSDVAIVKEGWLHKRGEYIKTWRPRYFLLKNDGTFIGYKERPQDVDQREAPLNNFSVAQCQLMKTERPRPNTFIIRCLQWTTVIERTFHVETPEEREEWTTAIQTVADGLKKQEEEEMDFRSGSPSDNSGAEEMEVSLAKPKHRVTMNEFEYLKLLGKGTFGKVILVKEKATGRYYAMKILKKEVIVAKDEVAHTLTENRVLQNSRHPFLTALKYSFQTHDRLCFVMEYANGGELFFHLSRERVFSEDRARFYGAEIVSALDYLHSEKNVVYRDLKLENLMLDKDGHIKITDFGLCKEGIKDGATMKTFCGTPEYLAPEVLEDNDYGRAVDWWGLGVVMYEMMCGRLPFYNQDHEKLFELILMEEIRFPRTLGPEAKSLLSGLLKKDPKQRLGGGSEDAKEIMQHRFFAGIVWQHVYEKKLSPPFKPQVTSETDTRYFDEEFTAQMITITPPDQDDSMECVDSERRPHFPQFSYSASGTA

Row | Substance | PKBα activity relative to peptide 1 (Crosstide) (PKBα) [%] | SGK2 activity % relative to peptide 1 (Crosstide) (SGK2; [1]) [%] | SGK activity relative to peptide 1 (Crosstide) (SGK) [%] | SGK1 activity % relative to peptide 1 (Crosstide) (SGK1; [2]) [%] | SGK3 activity % relative to peptide 1 (Crosstide) (SGK3; [3]) [%] | SGK2 activity % relative to peptide 1 (Crosstide) (SGK2; […]) [%] | SGK1 activity % relative to peptide 1 (Crosstide) (SGK1; […]) [%] | SGK3 activity % relative to peptide 1 (Crosstide) (SGK3; […]) [%]
1 | RPRTSS [Peptide 5, ID; NO: 31] | <1 | 8 | 10 | 5.1 | 18 |  |  | 
2 | RPRTSTF [Peptide 6, ID; NO: 35] | 208 | 192 | 156 | 129 | 156 |  |  | 
3 | RPRTSSL [Peptide 11, ID; NO: 40] | 69 | 185 | 135 | 108 | 113 |  |  | 
4 | RPRAATF [Peptide 7] | 55 |  | 73 |  |  | 61 | 44 | 56
5 | RPKTSSF [Peptide 9, ID; NO: 38] | 26 | 8 | 49 | 11 | 48 |  |  | 
6 | RPRTSSE [Peptide 15, ID; NO: 44] | 21 | 34 | 84 | 28 | 67 |  |  | 
7 | KPRTSSF [Peptide 8, ID; NO: 37] | 6 | <1 | 2 | <1 | <1 |  |  | 
8 | RPRTSSK [Peptide 14, ID; NO: 43] | 48 | 128 | 146 | 84 | 200 |  |  | 
9 | RPRTSSV [Peptide 12, ID; NO: 41] | 67 | 124 | 131 | 90 | 139 |  |  | 
10 | PRTSSF [Peptide 4, ID; NO: 33] | <1 | <1 | <1 | <1 | <1 |  |  | 
11 | GRPRTSSFAEG [Peptide 1, ID; NO: 30, reference compound] | 100 | 100 | 100 | 100 | 100 |  |  | 
12 | RPRTSSF [Peptide 2, ID; NO: 39] | 160 | 182 | 154 | 135 | 137 |  |  | 
13 | RPRTSSA [Peptide 13, ID; NO: 42] | 26 | 82 | 107 | 49 | 123 |  |  | 
14 | RPRTSAF [Peptide 3, ID; NO: 32] | <1 | <1 | <1 | <1 | <1 |  |  | 
